According to paper PMC5108336, “Tubular epithelial cells in renal clear cell carcinoma express high RIPK1/3 and show increased susceptibility to TNF receptor 1-induced necroptosis” (Cell Death & Disease, 2016):

T1: Mixed lineage kinase domain-like phosphorylated at Serine 358 (human (endogenous in RCC and kidney …, UniProt Q8NB16 1-471, phosphoserine at 358))
T1 construct: also called pMLKL^Ser358; phospho-MLKL^Ser358; source: endogenous, organ cultures of human RCC grade 1 and adjacent non-tumor kidney (tissue sections)
T1 sequence (looked up): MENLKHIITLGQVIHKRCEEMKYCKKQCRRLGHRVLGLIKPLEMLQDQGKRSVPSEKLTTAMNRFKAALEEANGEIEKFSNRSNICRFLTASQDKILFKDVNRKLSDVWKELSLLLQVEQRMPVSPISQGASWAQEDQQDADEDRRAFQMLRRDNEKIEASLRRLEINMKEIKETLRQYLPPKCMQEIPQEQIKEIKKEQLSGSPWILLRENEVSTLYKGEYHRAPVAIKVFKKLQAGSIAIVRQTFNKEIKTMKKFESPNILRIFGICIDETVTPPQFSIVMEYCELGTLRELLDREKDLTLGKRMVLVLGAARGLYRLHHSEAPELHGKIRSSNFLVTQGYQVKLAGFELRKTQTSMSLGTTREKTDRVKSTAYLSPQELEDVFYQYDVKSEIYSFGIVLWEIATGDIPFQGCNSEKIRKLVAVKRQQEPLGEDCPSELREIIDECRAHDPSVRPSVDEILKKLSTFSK

B1: receptor-interacting protein kinase 3 (natural protein, UniProt Q9Y572-1 1-518, looked up)
chain: MSCVKLWPSGAPAPLVSIEELENQELVGKGGFGTVFRAQHRKWGYDVAVKIVNSKAISREVKAMASLDNEFVLRLEGVIEKVNWDQDPKPALVTKFMENGSLSGLLQSQCPRPWPLLCRLLKEVVLGMFYLHDQNPVLLHRDLKPSNVLLDPELHVKLADFGLSTFQGGSQSGTGSGEPGGTLGYLAPELFVNVNRKASTASDVYSFGILMWAVLAGREVELPTEPSLVYEAVCNRQNRPSLAELPQAGPETPGLEGLKELMQLCWSSEPKDRPSFQECLPKTDEVFQMVENNMNAAVSTVKDFLSQLRSSNRRFSIPESGQGGTEMDGFRRTIENQHSRNDVMVSEWLNKLNLEEPPSSVPKKCPSLTKRSRAQEEQVPQAWTAGTSSDSMAQPPQTPETSTFRNQMPSPTSTGTPSPGPRGNQGAERQGMNWSCRTPEPNPVTGRPLVNIYNCSGVQVGDNNYLTMQQTTALPTWGLAPSGKGRGLQHPPPVGSQEGPKDPEAWSRPQGWYNHSGK
notes: Detected in situ by an anti-RIPK3 antibody; also called RIPK3; source: endogenous, organ cultures of human RCC grade 1 and adjacent non-tumor kidney (tissue sections)

Key:
[1] = target: T1, Mixed lineage kinase domain-like …; assay: proximity ligation; in situ PLA (Duolink In Situ Detection Reagents Red) on sections of organ cultures of RCC grade 1 and adjacent non-tumor kidney (NK), untreated (UT) or treated with wtTNF (10 ng/ml), R1TNF or R2TNF (1 ug/ml) for 3 h at 37 °C; signal when two proteins are closer than 40 nm; red spots counted in mTECs in 10 random fields at x40; details: partners not purified
[2] = target: B1; assay: as above; details: partners not purified

fold increase of PLA signal with R1TNF over untreated (non-tumor kidney organ culture) [1] [fold] | fold increase of PLA signal with R1TNF over untreated (non-tumor kidney organ culture) [2] [fold] | Binder
~2.5 |  | B1
 | ~3 | receptor-interacting protein kinase 1 (natural protein, UniProt Q13546-1 1-671, looked up, Detected in situ by an anti-RIPK1 antibody; also called RIPK1; source: endogenous, organ cultures of human RCC grade 1 and adjacent non-tumor kidney (tissue sections)) MQPDMSLNVIKMKSSDFLESAELDSGGFGKVSLCFHRTQGLMIMKTVYKGPNCIEHNEALLEEAKMMNRLRHSRVVKLLGVIIEEGKYSLVMEYMEKGNLMHVLKAEMSTPLSVKGRIILEIIEGMCYLHGKGVIHKDLKPENILVDNDFHIKIADLGLASFKMWSKLNNEEHNELREVDGTAKKNGGTLYYMAPEHLNDVNAKPTEKSDVYSFAVVLWAIFANKEPYENAICEQQLIMCIKSGNRPDVDDITEYCPREIISLMKLCWEANPEARPTFPGIEEKFRPFYLSQLEESVEEDVKSLKKEYSNENAVVKRMQSLQLDCVAVPSSRSNSATEQPGSLHSSQGLGMGPVEESWFAPSLEHPQEENEPSLQSKLQDEANYHLYGSRMDRQTKQQPRQNVAYNREEERRRRVSHDPFAQQRPYENFQNTEGKGTAYSSAASHGNAVHQPSGLTSQPQVLYQNNGLYSSHGFGTRPLDPGTAGPRVWYRPIPSHMPSLHNIPVPETNYLGNTPTMPFSSLPPTDESIKYTIYNSTGIQIGAYNYMEIGGTSSSLLDSTNTNFKEEPAAKYQAIFDNTTSLTDKHLDPIRENLGKHWKNCARKLGFTQSQIDEIDHDYERDGLKEKVYQMLQKWVMREGIKGATVGKLAQALHQCSRIDLLSSLIYVSQN
